Experimental findings from US20210347873A1 (SHANGHAI PHARMAEXPLORER, published 2021) are described below.

Test [1] concerns the target T1, biotinylated hBLyS-ECD (human, UniProt Q9Y275 134-285, biotinylated with Biotin-X-X-NHS (molar ratio 7:1); sites not stated).
T1 construct: also called biotinylated immunogen; biotinylated hBLvS-ECD
Put plainly: competition ELISA; competitor 35E6F7C3. As for the experimental part: (§1) The purified human BLyS antibody and hybridoma antibody were subjected to competitive enzyme-linked immunosorbent assay and the epitopes binding by different antibodies were analyzed.
(§2) Purified BLyS antibody was first diluted to a final concentration of 1.0 μg/mL with PBS, then aliquoted into a 96-well ELISA plate at 50 μL per well, and the plate was subsequently sealed with plastic film and incubated at 4° C. overnight. On the next day the plate was rinsed four times with the plate washing buffer [PBS buffer containing 0.05% (v/v) Tween20] and mixed with blocking solution [PBS buffer containing 0.05% (v/v) Tween20 and 1% (w/w) BSA], and then blocked at 37° C. for 1 hour. The blocking solution was removed, and the competitive antibody and IgG control were diluted to a final concentration of 40 μg/mL with PBS and then aliquoted into the 96-well ELISA plate at 50 μL per well. The biotinylated hBLyS-ECD was then diluted with PBS to a final concentration of 2 ng/mL and pipetted into the 96-well ELISA plate at 50 μL per well. The final concentration of competitive antibody and hBLyS-ECD was 20 μg/mL and 1 ng/mL, respectively. After incubation at 37° C. for 1 hour, the plate was rinsed four times with the plate washing buffer [PBS buffer containing 0.05% (v/v) Tween20]. 100 μL per well of HRP-labeled (horseradish peroxidase) streptavidin (purchased from Sigma) was added into the plate and the plate was incubated at 37° C. for 1 hour. The plate was then washed four times with the plate washing buffer [PBS buffer containing 0.05% (v/v) Tween20]. 100 μL of TMB substrate was aliquoted into each well and after incubation at room temperature for 5 minutes, 100 μL of stop solution (1.0 N HCl) was aliquoted into each well. A₄₅₀ₙₘ values were read by an ELISA plate reader (SpectraMax M5e, purchased from Molecular Device) and the results were shown in Tables 18A-18B. […] The data shown in the table is the inhibitory rate (%) of the binding level of the original antibody to hBLyS-ECD after addition of the competitive antibody.
(In general: An ELISA detects its analyte on a solid surface through an enzyme-linked reagent.)

Test [2] addresses T1, biotinylated hBLyS-ECD. Put plainly: competition ELISA; competitor 78C11D2D12. The protocol: as §1, §2
Test [3] concerns the target T1, biotinylated hBLyS-ECD. Put plainly: competition ELISA; competitor 111D10D6G3. As for the experimental part: as §1, §2
The target in test [4] is T1, biotinylated hBLyS-ECD. Put plainly: competition ELISA; competitor 67A2E1D10. The protocol: as §1, §2
For test [5], the target named is T1, biotinylated hBLyS-ECD. Put plainly: competition ELISA; competitor 97A3C2H4. As for the experimental part: as §1, §2
Test [6] deals with T1, biotinylated hBLyS-ECD. Put plainly: competition ELISA; competitor 93C6F10D3. As for the experimental part: as §1, §2
Test [7] has as its target T1, biotinylated hBLyS-ECD. Put plainly: competition ELISA; competitor 8E7D9C7F5. The protocol:
as §1, §2

In test [8] the target is T2, biotinylated hBLyS-ECD (human, UniProt Q9Y275 134-285, biotinylated with Biotin-X-X-NHS (molar ratio 7:1), sites not stated).
T2 construct: The hBLyS-ECD of Embodiment 1 after biotinylation (Embodiment 2); also called biotinylated immunogen; BLyS protein; not shown: His tag of the pCPC vector
Put plainly: ELISA: biotinylated hBLyS-ECD captured on streptavidin, antibody titrated, HRP secondary antibody.

For test [9], the target named is extracellular domain of human BLyS protein (hBLyS-ECD), His-tagged, Ala134-Leu285 (human, UniProt Q9Y275 134-285). Put plainly: cell-based or functional assay.
Sequence of extracellular domain of human BLyS protein (hBLyS-ECD), His-tagged, Ala134-Leu285 (Q9Y275 134-285): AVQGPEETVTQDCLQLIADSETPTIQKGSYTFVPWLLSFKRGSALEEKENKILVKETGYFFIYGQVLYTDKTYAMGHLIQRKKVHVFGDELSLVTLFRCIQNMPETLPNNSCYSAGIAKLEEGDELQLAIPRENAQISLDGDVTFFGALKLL

T1 sequence (Q9Y275 134-285): as above
T2 sequence (Q9Y275 134-285): as above

B1: 35E6F7C3 (antibody, V domains shown)
VH: EVQLQQSGAELVKPGASVKLSCTAAGFNIQDTYIHWVKQRPEQGLEWIGRIDPANANTVYDPKFQGKATITADTSSNTAYLQVSSLTSEDTAVYYCASPVITAGFAYWGQGTLVTVSA
VL: QIVLTQSPAIMSASPGEKVTMTCGASSSVNYVHWYQQKSGTSPKRWIYDTSKLASGVPARFSGSGSGTSYSLTISSMEAEDAATYYCQQWTRSPLTFGAGTKVELK
notes: Mouse hybridoma antibody purified on Protein G
In the case of B1, the “inhibitory rate (%)” value was found to be 91% in test [1]; 36% in test [2]; 38% in [3]; 33% in test [4]; 26% in [5]; 33% in test [6]. Also, the “inhibitory rate (%)” value in test [7] stood at 27%.

B2: 8E7D9C7F5 (antibody, V domains shown)
VH: QVQLQQSGVELARPGASVKLSCKASGYTFTSYGISWVKQRTGQALEWIGEIYPRSGNTYYNEKFKGKATLTADKSSSTAYMELRSLTSEDSAVYFCARSGPITTLVATDYGMDYWGQGTSVTVSS
VL: DIVLTQSPASLAVSLGQRATISCRASKSVSTSSYSYMHWYQQKPGQPPKLLIKFASNLESGVPARFSGSGSGTDFTLNIHPVEEEDAATYYCQHSREFPYTFGGGTKLEIK
notes: as for B1
With B2, the “inhibitory rate (%)” value in test [1] was found to be 40%; in test [2], 94%; in [3], 96%; in test [4], 96%; in [5] it was 89%; in test [6], 85%. The “inhibitory rate (%)” value in test [7] is 92%.

B3: 111D10D6G3 (antibody, V domains shown)
VH: QVQLQQPGAELVKPGASVKMSCKASGYTFTRHWITWVKQRPGQGLEWIGDIFPGSGSINYNEKFKSEATLTVEKSSSTAYMQLSSLTSEDSAVYYCARGDVDVWGTGTTVTVSS
VL: DIQMTQSPSSLSASLGERVSLTCRASQEIRGYLSWLQQKPNGTIKRLIYAASTLDSGVPKRFSATRSGSDFSLTISSLESEDFADYYCLQYASYPFTFGSGTKLEIK
notes: as for B1
B3: the “inhibitory rate (%)” value in test [1] came to 22%; in test [2], 86%; in test [3], 95%; in test [4], 96%; in [5], 26%; in test [6], 41%. The “inhibitory rate (%)” value in [7] stood at 27%.

B4: c93C6F10D3 (antibody, human IgG1, V domains shown)
VH: EVQLVESGGGLVTPGGSLKLSCVASGFAFSTYGMSWVRQTPERRLEWVAYISGGGGSIYYPDSVKGRFTISRDNAKNILYLQMSSLKSEDTAMYHCTRHPDLLLRYDYALDHWGQGTSVTVSS
VL: DIQMTQSPASLSASVGETVTITCRASENIHIYLAWYQQKQGKSPQLLVYNGKTLADGVPSRFSGSGSGTQYSLKINTLQPEDFGNYYCQHFWNSTWTFGGGTKLEIK
notes: also called BLyS chimeric antibody
What is called EC50 (read off the curve) is the concentration that produces a half-maximal response. Turning to B4, the concentration for a half-maximal effect (EC50 (read off the curve)) in [8] is around 0.07 nM.

B5: 93C6F10D3 (antibody, V domains shown)
VH: EVQLVESGGGLVTPGGSLKLSCVASGFAFSTYGMSWVRQTPERRLEWVAYISGGGGSIYYPDSVKGRFTISRDNAKNILYLQMSSLKSEDTAMYHCTRHPDLLLRYDYALDHWGQGTSVTVSS
VL: DIQMTQSPASLSASVGETVTITCRASENIHIYLAWYQQKQGKSPQLLVYNGKTLADGVPSRFSGSGSGTQYSLKINTLQPEDFGNYYCQHFWNSTWTFGGGTKLEIK
notes: as for B1
For the molecule B5, the “inhibitory rate (%)” value came to 42% in test [1]; 92% in [2]; 95% in test [3]; 97% in test [4]; 90% in test [5]; 79% in [6]. Further, the “inhibitory rate (%)” value in test [7] is 94%.

B6: L1D12 (antibody, V domains shown)
VH: QVQLVQSGGGLVQPGGSLRLSCAASGFTVSSNYMSWVRQAPGKGLEWVSVIYSGGSTYYADSVKGRFTISRDNSKNTLYLQMNSLRAEDTAVYYCARGFHDILTGYGMDVWGQGTTVTVSS
VL: SSELTQDPAVSVALGQTVRITCQGDSLRNYYAGWYQQKPGQAPVLVIYGKNNRPSGIPDRFSGSSSGNTASLTITGTQAEDEADYYCSSRDNSGTHLVEFGGGTKLTVL
On to B6, for which the “Proportion of B lymphocytes in splenocytes (%), in vivo in mice” value in test [9] worked out at 26.8%.

B7: 97A3C2H4 (antibody, V domains shown)
VH: EVKLVESGGGLVQPGGSLKLSCAASGFTFSTYTMSWVRQTPEKRLEWVAYISYGGGSTSYPDTVKGRFTISRDNAKNTLYLQMSSLKSEDTAIYYCTRHVTVVENSMDYWGQGTSVTVSS
VL: DILLTQSPDILSVSPGERVSFSCRASQSIGTSIHWYQQRTNGSPRLLIKYVSESFSGTPSRFSGSGSGTAFTLTINSVESEDIADYYCQQTHSWPWTFGGGTKLEIK
notes: as for B1
For B7, the “inhibitory rate (%)” value in test [1] was determined as 55%; in [2] it was 96%; in test [3], 93%; in [4] it was 96%; in test [5], 89%; in test [6], 93%. Besides, the “inhibitory rate (%)” value in test [7] came out at 93%.

B8: c67A2E1D10 (antibody, human IgG1, V domains shown)
VH: EVQLQQSGAELVKPGASVKLSCTASGFNIKNYYMHWVKQRTEEGLEWIGRIDPEDGETKYAPKFQAKATITADTSSNTAYLQLSSLTSEDTAVYFCARKGYYGNYGAWFAYWGQGTLVTVSA
VL: DIQMTQSPASLSVSVGETVTITCRASEDLYSNLAWYQQKQGKSPQLLVYAATFLADGVPSRFSGSGSGTQYSLKINSLQSEDFGNYYCQHFWGTPPTFGGGTKLEIK
notes: as for B4
Turning to B8, the half-maximal effective concentration (EC50 (read off the curve)) in test [8] is around 0.1 nM.

B9: 67A2E1D10 (antibody, V domains shown)
VH: EVQLQQSGAELVKPGASVKLSCTASGFNIKNYYMHWVKQRTEEGLEWIGRIDPEDGETKYAPKFQAKATITADTSSNTAYLQLSSLTSEDTAVYFCARKGYYGNYGAWFAYWGQGTLVTVSA
VL: DIQMTQSPASLSVSVGETVTITCRASEDLYSNLAWYQQKQGKSPQLLVYAATFLADGVPSRFSGSGSGTQYSLKINSLQSEDFGNYYCQHFWGTPPTFGGGTKLEIK
notes: as for B1
B9: the “inhibitory rate (%)” value in [1] worked out at 18%; in [2], 80%; in test [3], 86%; in [4] it was 93%; in [5], 75%; in test [6], 44%. In addition, the “inhibitory rate (%)” value in test [7] turned out to be 63%.

B10: 78C11D2D12 (antibody, V domains shown)
VH: QVQLQQSGAELVRPGTSVKISCKASGYAFTNYWLGWVKQRPGHGLEWIGDIYPGSGNTYYNEKFKGKATLTADKSSSTAYMQLSSLTSEDSAVFFCAAYLYAMDYWGQGTSVTVSS
VL: QIVLTQSPAIMSASPGEKVTITCSASSSVSYMHWFQQKPGTSPKLWIYSASNLASGVPARFSGSGSGTSYSLTISRMEAEDAATYYCQQRGSYPFTFGSGTKLEIK
notes: as for B1
On to B10, for which the “inhibitory rate (%)” value in [1] amounted to 29%; in test [2], 88%; in test [3], 95%; in test [4], 95%; in test [5], 46%; in [6], 58%. Besides, the “inhibitory rate (%)” value in test [7] was 37%.
